According to PMC8754118, “The PqsE-RhlR Interaction Regulates RhlR DNA Binding to Control Virulence Factor Production in Pseudomonas aeruginosa” (Microbiology Spectrum, 2022):

Assays:
[1] = test system: RhlR:mBTL;PqsE (Pseudomonas aeruginosa;Pseudomonas aeruginosa); experiment: EMSA; conditions: scale: fold higher affinity than RhlR:mBTL alone
[2] = molecular target: 6x-His-PqsE(E182W/S285W) (P. aeruginosa, UniProt P20581 1-301, E182W | S285W); experiment: cell-based or functional assay
[3] = molecular target: 6x-His-PqsE(E182W) (P. aeruginosa, UniProt P20581 1-301, E182W); experiment: cell-based or functional assay
[4] = molecular target: 6x-His-PqsE (wild type) (P. aeruginosa, UniProt P20581 1-301); experiment: cell-based or functional assay

rhlA promoter EMSA probe
binding signal [1]: 5

B1: RhlR bound to meta-bromo-thiolactone (RhlR:mBTL) (receptor)
chain: MRNDGGFLLWWDGLRSEMQPIHDSQGVFAVLEKEVRRLGFDYYAYGVRHTIPFTRPKTEVHGTYPKAWLERYQMQNYGAVDPAILNGLRSSEMVVWSDSLFDQSRMLWNEARDWGLCVGATLPIRAPNNLLSVLSVARDQQNISSFEREEIRLRLRCMIELLTQKLTDLEHPMLMSNPVCLSHREREILQWTADGKSSGEIAIILSISESTVNFHHKNIQKKFDAPNKTLAAAYAAALGLI
bioluminescence from prhlA-luxCDABE in E. coli carrying rhlR and pqsE(E182W/S285W), 500 nM C4HSL, against the no-PqsE control strain [2]: ~11 fold
bioluminescence from prhlA-luxCDABE in E. coli carrying rhlR and pqsE(E182W), 500 nM C4HSL, against the no-PqsE control strain [3]: ~11 fold
bioluminescence from prhlA-luxCDABE in E. coli carrying rhlR and pqsE, 500 nM C4HSL, against the strain lacking PqsE [4]: 42 fold
